In PMC2864356 (Biochemistry, 2010):

What was measured:
Assay in all cases: inhibition of PDE activity
[1] = target: PDE5/6cd I802A//M804A (human) (UniProt O76074)
[2] = target: PDE5/6cd V796E (human) (UniProt O76074)
[3] = target: PDE5/6cd I802A (human) (UniProt O76074)
[4] = target: PDE5/6cd M804L (human) (UniProt O76074)
[5] = target: chimeric PDE5/PDE6 catalytic domain PDE5/6cd (human) (UniProt O76074)
[6] = target: PDE5/6cd Q799I (human) (UniProt O76074)
[7] = target: PDE5/6cd I802A/P803D/M804L (human) (UniProt O76074)
[8] = target: PDE5/6cd I802T (human) (UniProt O76074)
[9] = target: PDE5/6cd M804A (human) (UniProt O76074)
[10] = target: PDE5/6cd L792R/V796E/Q799I (human) (UniProt O76074)
[11] = target: PDE5/6cd P803D (human) (UniProt O76074)
[12] = target: PDE5/6cd F823A (human) (UniProt O76074)
[13] = target: PDE5/6cd L792R (human) (UniProt O76074)
[14] = target: PDE5/6cd I802T/P803D/M804L (human) (UniProt O76074)
[15] = target: PDE5cd R792L/E796V/I799Q/A823F (human, UniProt O76074 535-860, R792L | E796V | I799Q | A823F)
[16] = target: PDE5cd A823F (human, UniProt O76074 535-860, A823F)
[17] = target: PDE5cd T802I/D803P/L804M/A823F (human, UniProt O76074 535-860, T802I | D803P | L804M | A823F)

Molecule	Ki [1] [µM]	Ki [2] [µM]	Ki [3] [µM]	Ki [4] [µM]	Ki [5] [µM]	Ki [6] [µM]	Ki [7] [µM]	Ki [8] [µM]	Ki [9] [µM]	Ki [10] [µM]	Ki [11] [µM]	Ki [12] [µM]	Ki [13] [µM]	Ki [14] [µM]	Ki [15] [µM]	maximal inhibition (%) [15] [%]	Ki [16] [µM]	maximal inhibition (%) [16] [%]	Ki [17] [µM]	maximal inhibition (%) [17] [%]
Pγ C-terminal peptide Pγ_(63-87) (from UniProt P04972 63-87)	26.2	1.8	12.1	2	1.7	3.5	25.5	8.6	10.3	6	6.7	15.1	3.2	21.8	–	–	–	–	–	–
DITVICPWEAFNHLELHELAQYGII (peptide, UniProt P04972 63-87, looked up) [Pγ C-terminal peptide Pγ_(63-87)]	–	–	–	–	–	–	–	–	–	–	–	–	–	–	23.5	78 ± 5	44.3	52 ± 4	19.4	72 ± 4
